# Experimental data reported in publication PMC10786891, “Massively parallel profiling of RNA-targeting CRISPR-Cas13d”.
# T1: EsCas13d, nuclease-dead (Eubacterium siraeum, UniProt B0MS50, R295A;H300A;R849A;H854A)
# T1 sequence: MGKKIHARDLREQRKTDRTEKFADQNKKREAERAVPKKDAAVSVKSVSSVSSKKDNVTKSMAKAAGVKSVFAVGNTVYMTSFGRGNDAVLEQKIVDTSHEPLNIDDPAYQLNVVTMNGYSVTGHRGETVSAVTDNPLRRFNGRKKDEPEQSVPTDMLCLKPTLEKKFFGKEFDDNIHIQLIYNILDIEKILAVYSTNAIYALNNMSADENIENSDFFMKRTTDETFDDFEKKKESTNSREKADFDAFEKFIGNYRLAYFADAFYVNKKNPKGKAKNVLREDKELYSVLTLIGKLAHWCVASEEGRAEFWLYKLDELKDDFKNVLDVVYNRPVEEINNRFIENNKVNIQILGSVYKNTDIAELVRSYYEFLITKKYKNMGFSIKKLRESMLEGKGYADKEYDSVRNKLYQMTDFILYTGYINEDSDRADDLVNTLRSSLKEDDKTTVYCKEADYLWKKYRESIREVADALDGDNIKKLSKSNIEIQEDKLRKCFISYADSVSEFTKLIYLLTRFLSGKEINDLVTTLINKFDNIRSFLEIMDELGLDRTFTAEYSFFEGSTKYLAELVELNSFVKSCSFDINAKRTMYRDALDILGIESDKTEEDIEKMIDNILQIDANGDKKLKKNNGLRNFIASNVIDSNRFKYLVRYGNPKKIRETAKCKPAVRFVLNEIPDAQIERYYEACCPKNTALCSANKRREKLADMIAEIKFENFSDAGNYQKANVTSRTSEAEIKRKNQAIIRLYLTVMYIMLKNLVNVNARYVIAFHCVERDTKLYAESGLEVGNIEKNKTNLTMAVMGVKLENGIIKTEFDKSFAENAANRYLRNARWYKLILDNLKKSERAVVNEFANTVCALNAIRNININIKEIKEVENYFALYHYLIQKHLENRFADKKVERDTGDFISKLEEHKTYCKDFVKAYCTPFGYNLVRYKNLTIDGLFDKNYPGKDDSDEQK
# Molecular target: T1, EsCas13d, nuclease-dead
# Experiment: crRNA (strand 1, pre-loaded); Mg2+; 40 mM Tris-HCl pH 7.5, 150 mM NaCl, 6 mM MgCl2, 1 mM DTT, 0.1% Tween-20, 0.2 mg/ml BSA; 25 C; 10 min per concentration, then washed
# Conditions: tags: His6-TwinStrep-SUMO cleaved; N-terminal SNAP kept (SNAP-Surface 488); label: 3' end held by stalled T7 RNA polymerase
row,Binder,Kd [nM]
1,"target 1 insC 3' of 12,insG 3' of 8 (mixed) RNA 1: CACCCGUGCAAAAAUGCAGGGGUCUAAAACUGAGCGGAUAACCUCUCUAUGG RNA 2: GGGAAUGGAUCCACAUCUACGAAUUCGUACCAUAGAGAGGCUUAUGCCGCUCACCGAGAUCGGAAGAGCACACGU",15 ± 0.6
2,"target 1 insU 3' of 20,insG 3' of 8 (mixed) RNA 1: CACCCGUGCAAAAAUGCAGGGGUCUAAAACUGAGCGGAUAACCUCUCUAUGG RNA 2: GGGAAUGGAUCCACAUCUACGAAUUCGUACCAUUAGAGAGGUUAUGCCGCUCACCGAGAUCGGAAGAGCACACGU",20.4 ± 1.6
3,"target 1 C4A,C7G (mixed) RNA 1: CACCCGUGCAAAAAUGCAGGGGUCUAAAACUGAGCGGAUAACCUCUCUAUGG RNA 2: GGGAAUGGAUCCACAUCUACGAAUUCGUACCAUAGAGAGGUUAUGCGAUCACCGAGAUCGGAAGAGCACACGU",9.6 ± 0.4
4,"target 1 insC 3' of 17,insA 3' of 10 (mixed) RNA 1: CACCCGUGCAAAAAUGCAGGGGUCUAAAACUGAGCGGAUAACCUCUCUAUGG RNA 2: GGGAAUGGAUCCACAUCUACGAAUUCGUACCAUAGCAGAGGUUAAUCCGCUCACCGAGAUCGGAAGAGCACACGU",43.2 ± 3.4
5,"target 1 insC 3' of 18,insU 3' of 4 (mixed) RNA 1: CACCCGUGCAAAAAUGCAGGGGUCUAAAACUGAGCGGAUAACCUCUCUAUGG RNA 2: GGGAAUGGAUCCACAUCUACGAAUUCGUACCAUACGAGAGGUUAUCCGCUUCACCGAGAUCGGAAGAGCACACGU",25.8 ± 1.8
6,"target 1 insU 3' of 15,insA 3' of 7 (mixed) RNA 1: CACCCGUGCAAAAAUGCAGGGGUCUAAAACUGAGCGGAUAACCUCUCUAUGG RNA 2: GGGAAUGGAUCCACAUCUACGAAUUCGUACCAUAGAGUAGGUUAUCACGCUCACCGAGAUCGGAAGAGCACACGU",8.2 ± 0.6
7,"target 1 A14G,U19C (mixed) RNA 1: CACCCGUGCAAAAAUGCAGGGGUCUAAAACUGAGCGGAUAACCUCUCUAUGG RNA 2: GGGAAUGGAUCCACAUCUACGAAUUCGUACCACAGAGGGGUUAUCCGCUCACCGAGAUCGGAAGAGCACACGU",63 ± 14
8,"target 1 insC 3' of 17,insU 3' of 7 (mixed) RNA 1: CACCCGUGCAAAAAUGCAGGGGUCUAAAACUGAGCGGAUAACCUCUCUAUGG RNA 2: GGGAAUGGAUCCACAUCUACGAAUUCGUACCAUAGCAGAGGUUAUCUCGCUCACCGAGAUCGGAAGAGCACACGU",57 ± 6
9,"target 1 insA 3' of 11,insG 3' of 8 (mixed) RNA 1: CACCCGUGCAAAAAUGCAGGGGUCUAAAACUGAGCGGAUAACCUCUCUAUGG RNA 2: GGGAAUGGAUCCACAUCUACGAAUUCGUACCAUAGAGAGGUAUAUGCCGCUCACCGAGAUCGGAAGAGCACACGU",35.6 ± 2.3
10,"target 1 insG 3' of 21,insC 3' of 9 (mixed) RNA 1: CACCCGUGCAAAAAUGCAGGGGUCUAAAACUGAGCGGAUAACCUCUCUAUGG RNA 2: GGGAAUGGAUCCACAUCUACGAAUUCGUACCGAUAGAGAGGUUACUCCGCUCACCGAGAUCGGAAGAGCACACGU",83 ± 16
11,"target 1 C4U,C7A (mixed) RNA 1: CACCCGUGCAAAAAUGCAGGGGUCUAAAACUGAGCGGAUAACCUCUCUAUGG RNA 2: GGGAAUGGAUCCACAUCUACGAAUUCGUACCAUAGAGAGGUUAUACGUUCACCGAGAUCGGAAGAGCACACGU",11.2 ± 0.8
12,"target 1 insU 3' of 22,insU 3' of 7 (mixed) RNA 1: CACCCGUGCAAAAAUGCAGGGGUCUAAAACUGAGCGGAUAACCUCUCUAUGG RNA 2: GGGAAUGGAUCCACAUCUACGAAUUCGUACUCAUAGAGAGGUUAUCUCGCUCACCGAGAUCGGAAGAGCACACGU",43 ± 4
13,"target 1 U3G,C7G (mixed) RNA 1: CACCCGUGCAAAAAUGCAGGGGUCUAAAACUGAGCGGAUAACCUCUCUAUGG RNA 2: GGGAAUGGAUCCACAUCUACGAAUUCGUACCAUAGAGAGGUUAUGCGCGCACCGAGAUCGGAAGAGCACACGU",6.04 ± 0.33
14,"target 1 G15A,A16G (mixed) RNA 1: CACCCGUGCAAAAAUGCAGGGGUCUAAAACUGAGCGGAUAACCUCUCUAUGG RNA 2: GGGAAUGGAUCCACAUCUACGAAUUCGUACCAUAGGAAGGUUAUCCGCUCACCGAGAUCGGAAGAGCACACGU",51 ± 5
15,"target 1 insU 3' of 14,insG 3' of 2 (mixed) RNA 1: CACCCGUGCAAAAAUGCAGGGGUCUAAAACUGAGCGGAUAACCUCUCUAUGG RNA 2: GGGAAUGGAUCCACAUCUACGAAUUCGUACCAUAGAGAUGGUUAUCCGCUCGACCGAGAUCGGAAGAGCACACGU",44 ± 7
16,"target 1 insG 3' of 19,insU 3' of 2 (mixed) RNA 1: CACCCGUGCAAAAAUGCAGGGGUCUAAAACUGAGCGGAUAACCUCUCUAUGG RNA 2: GGGAAUGGAUCCACAUCUACGAAUUCGUACCAUGAGAGAGGUUAUCCGCUCUACCGAGAUCGGAAGAGCACACGU",57 ± 13
17,"target 1 insC 3' of 14,insG 3' of 2 (mixed) RNA 1: CACCCGUGCAAAAAUGCAGGGGUCUAAAACUGAGCGGAUAACCUCUCUAUGG RNA 2: GGGAAUGGAUCCACAUCUACGAAUUCGUACCAUAGAGACGGUUAUCCGCUCGACCGAGAUCGGAAGAGCACACGU",62 ± 23
18,"target 1 insG 3' of 14,insC 3' of 9 (mixed) RNA 1: CACCCGUGCAAAAAUGCAGGGGUCUAAAACUGAGCGGAUAACCUCUCUAUGG RNA 2: GGGAAUGGAUCCACAUCUACGAAUUCGUACCAUAGAGAGGGUUACUCCGCUCACCGAGAUCGGAAGAGCACACGU",12.7 ± 0.6
19,"target 1 del8,del11 (mixed) RNA 1: CACCCGUGCAAAAAUGCAGGGGUCUAAAACUGAGCGGAUAACCUCUCUAUGG RNA 2: GGGAAUGGAUCCACAUCUACGAAUUCGUACCAUAGAGAGGUACCGCUCACCGAGAUCGGAAGAGCACACGU",25.7 ± 1.7
20,"target 1 C7G,A16C (mixed) RNA 1: CACCCGUGCAAAAAUGCAGGGGUCUAAAACUGAGCGGAUAACCUCUCUAUGG RNA 2: GGGAAUGGAUCCACAUCUACGAAUUCGUACCAUAGCGAGGUUAUGCGCUCACCGAGAUCGGAAGAGCACACGU",63 ± 6
21,"target 1 C6A,G12U (mixed) RNA 1: CACCCGUGCAAAAAUGCAGGGGUCUAAAACUGAGCGGAUAACCUCUCUAUGG RNA 2: GGGAAUGGAUCCACAUCUACGAAUUCGUACCAUAGAGAGUUUAUCAGCUCACCGAGAUCGGAAGAGCACACGU",10.7 ± 0.5
22,"target 1 insU 3' of 22,insU 3' of 12 (mixed) RNA 1: CACCCGUGCAAAAAUGCAGGGGUCUAAAACUGAGCGGAUAACCUCUCUAUGG RNA 2: GGGAAUGGAUCCACAUCUACGAAUUCGUACUCAUAGAGAGGUUUAUCCGCUCACCGAGAUCGGAAGAGCACACGU",26.9 ± 1.6
23,target 1 insG 3' of 21 (mixed) RNA 1: CACCCGUGCAAAAAUGCAGGGGUCUAAAACUGAGCGGAUAACCUCUCUAUGG RNA 2: GGGAAUGGAUCCACAUCUACGAAUUCGUACCGAUAGAGAGGUUAUCCGCUCACCGAGAUCGGAAGAGCACACGU,67 ± 10
24,"target 1 insG 3' of 9,insU 3' of 4 (mixed) RNA 1: CACCCGUGCAAAAAUGCAGGGGUCUAAAACUGAGCGGAUAACCUCUCUAUGG RNA 2: GGGAAUGGAUCCACAUCUACGAAUUCGUACCAUAGAGAGGUUAGUCCGCUUCACCGAGAUCGGAAGAGCACACGU",12.2 ± 0.4
